From patent publication US20200230249A1 (UREKA SARL, published 2020)
Numbered stars: 1 amine (or outer) side, 2 acyl side, 3 side chain; on linkers, the order of the positions; unused ones are H or OH. Square brackets hold non-standard residues; d marks the D form. Ends that are not written are not given here. A^u = urea/ureido (oligourea) residue with alanine side chain, C[C@@H](CNC(=O)[*:2])N[*:1]; Au = A^u, ureido (oligourea) alanine residue, C[C@@H](CNC(=O)[*:2])N[*:1]; D^uα = urea/ureido residue with aspartic acid side chain; E^u = urea/ureido residue with glutamic acid side chain; Y^u = urea/ureido residue with tyrosine side chain

T1: mouse GLP-1 receptor endogenously expressed in βTC6 cells (mouse, UniProt O35659 22-463)
T1 sequence (looked up): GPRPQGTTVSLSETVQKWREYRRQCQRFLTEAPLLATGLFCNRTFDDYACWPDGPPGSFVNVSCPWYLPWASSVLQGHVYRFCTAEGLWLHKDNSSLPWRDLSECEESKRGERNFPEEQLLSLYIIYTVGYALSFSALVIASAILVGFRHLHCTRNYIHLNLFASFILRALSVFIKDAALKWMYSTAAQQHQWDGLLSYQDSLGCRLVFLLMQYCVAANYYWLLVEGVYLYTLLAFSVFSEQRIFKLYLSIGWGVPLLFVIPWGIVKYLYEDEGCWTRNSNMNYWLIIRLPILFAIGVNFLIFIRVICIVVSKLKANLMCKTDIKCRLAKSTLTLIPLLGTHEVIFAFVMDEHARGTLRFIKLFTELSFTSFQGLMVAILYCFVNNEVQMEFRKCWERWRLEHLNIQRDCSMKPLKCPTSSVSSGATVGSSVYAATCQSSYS

B1: GG2[F^UαI^UA^U]^22-25 (peptide)
peptide: HGEGTFTSDVSSYLEGQAAKEXXXLVKGRG
modifications: ureido (oligourea) residues F^uα I^u A^u at positions 22-24 of the hybrid, replacing residues 22-25 of GLP-1-G2; C-terminal amide
B2: GG2[A^UA^UA^U]^23-26 (peptide)
peptide: HGEGTFTSDVSSYLEGQAAKEF[A^u][A^u][A^u]VKGRG-NH2
modifications: N-terminus assumed
SMILES: CC(C)C[C@H](NC(=O)[C@H](Cc1ccc(O)cc1)NC(=O)[C@H](CO)NC(=O)[C@H](CO)NC(=O)[C@@H](NC(=O)[C@H](CC(=O)O)NC(=O)[C@H](CO)NC(=O)[C@@H](NC(=O)[C@H](Cc1ccccc1)NC(=O)[C@@H](NC(=O)CNC(=O)[C@H](CCC(=O)O)NC(=O)CNC(=O)[C@@H](N)Cc1c[nH]cn1)[C@@H](C)O)[C@@H](C)O)C(C)C)C(=O)N[C@@H](CCC(=O)O)C(=O)NCC(=O)N[C@@H](CCC(N)=O)C(=O)N[C@@H](C)C(=O)N[C@@H](C)C(=O)N[C@@H](CCCCN)C(=O)N[C@@H](CCC(=O)O)C(=O)N[C@@H](Cc1ccccc1)C(=O)N[C@@H](C)CNC(=O)N[C@@H](C)CNC(=O)N[C@@H](C)CNC(=O)N[C@H](C(=O)N[C@@H](CCCCN)C(=O)NCC(=O)N[C@@H](CCCNC(=N)N)C(=O)NCC(N)=O)C(C)C
B3: GG2[A^UA^UA^U]^24-27 (peptide)
peptide: HGEGTFTSDVSSYLEGQAAKEFIXXXKGRG
modifications: ureido (oligourea) residues A^u A^u A^u at positions 24-26 of the hybrid, replacing residues 24-27 of GLP-1-G2; C-terminal amide
B4: GG2[A^UA^UA^U]^19-22 (peptide)
peptide: HGEGTFTSDVSSYLEGQA[A^u][A^u][A^u]IAWLVKGRG-NH2
modifications: N-terminus assumed
SMILES: CC[C@H](C)[C@H](NC(=O)NC[C@H](C)NC(=O)NC[C@H](C)NC(=O)NC[C@H](C)NC(=O)[C@H](C)NC(=O)[C@H](CCC(N)=O)NC(=O)CNC(=O)[C@H](CCC(=O)O)NC(=O)[C@H](CC(C)C)NC(=O)[C@H](Cc1ccc(O)cc1)NC(=O)[C@H](CO)NC(=O)[C@H](CO)NC(=O)[C@@H](NC(=O)[C@H](CC(=O)O)NC(=O)[C@H](CO)NC(=O)[C@@H](NC(=O)[C@H](Cc1ccccc1)NC(=O)[C@@H](NC(=O)CNC(=O)[C@H](CCC(=O)O)NC(=O)CNC(=O)[C@@H](N)Cc1c[nH]cn1)[C@@H](C)O)[C@@H](C)O)C(C)C)C(=O)N[C@@H](C)C(=O)N[C@@H](Cc1c[nH]c2ccccc12)C(=O)N[C@@H](CC(C)C)C(=O)N[C@H](C(=O)N[C@@H](CCCCN)C(=O)NCC(=O)N[C@@H](CCCNC(=N)N)C(=O)NCC(N)=O)C(C)C
B5: GG2[A^UA^UA^U]^17-20 (peptide)
peptide: HGEGTFTSDVSSYLEG[A^u][A^u][A^u]EFIAWLVKGRG-NH2
modifications: N-terminus assumed
SMILES: CC[C@H](C)[C@H](NC(=O)[C@H](Cc1ccccc1)NC(=O)[C@H](CCC(=O)O)NC(=O)NC[C@H](C)NC(=O)NC[C@H](C)NC(=O)NC[C@H](C)NC(=O)CNC(=O)[C@H](CCC(=O)O)NC(=O)[C@H](CC(C)C)NC(=O)[C@H](Cc1ccc(O)cc1)NC(=O)[C@H](CO)NC(=O)[C@H](CO)NC(=O)[C@@H](NC(=O)[C@H](CC(=O)O)NC(=O)[C@H](CO)NC(=O)[C@@H](NC(=O)[C@H](Cc1ccccc1)NC(=O)[C@@H](NC(=O)CNC(=O)[C@H](CCC(=O)O)NC(=O)CNC(=O)[C@@H](N)Cc1c[nH]cn1)[C@@H](C)O)[C@@H](C)O)C(C)C)C(=O)N[C@@H](C)C(=O)N[C@@H](Cc1c[nH]c2ccccc12)C(=O)N[C@@H](CC(C)C)C(=O)N[C@H](C(=O)N[C@@H](CCCCN)C(=O)NCC(=O)N[C@@H](CCCNC(=N)N)C(=O)NCC(N)=O)C(C)C

Target: T1, mouse GLP-1 receptor endogenously …
Test: cell-based or functional assay

Binder | EC50 (nM), cAMP production functional assay [nM] | Potency (%) compared to GLP-1-G^2, cAMP production [%]
H-HGEGTFTSDVSSYLEGQAAKEFIAWLVKGRG-NH2 [GLP-1-G^2 (GG2)] | 0.24 | 100
B1 | 62 | 0.4
H-HGEGTFTSDVSSYLE[Au][Au][Au]KEFIAWLVKGRG-NH2 (also: oligourea (urea) backbone at A^u units) [GG2[A^UA^UA^U]^16-19] | 240 | 0.1
HGEGTFTSDV[A^u][Y^u][A^u]EGQAAKEFIAWLVKGRG-NH2 [GG2[A^UY^UA^U]^11-14] | 1.6 | 15
HGEGTFTSDVSS[Au][Au][Au]QAAKEFIAWLVKGRG-NH2 (also: oligourea (urea) backbone at A^u units) [GG2[A^UA^UA^U]^13-16] | > 10000 | < 0.01
H-HGEGTFTSDVSSYL[Au][Au][Au]AKEFIAWLVKGRG-NH2 (also: oligourea (urea) backbone at A^u units) [GG2[A^UA^UA^U]^15-18] | 123 | 0.2
H-HGEGTFTSD[Au][Au][Au]LEGQAAKEFIAWLVKGRG-NH2 (also: oligourea (urea) backbone at A^u units) [GG2[A^UA^UA^U]^10-13] | 650 | 0.04
HGEGTFTSDVSSY[Y^u][E^u][A^u]AAKEFIAWLVKGRG-NH2 [GG2[Y^UE^UA^U]^14-17] | 0.18 | 135
B2 | 3930 | 0.01
B3 | > 10000 | < 0.01
HGEGTFTSDVSSYL[E^u][A^u][A^u]AKEFIAWLVKGRG-NH2 [GG2[E^UA^UA^U]^15-18] | 1.9 | 13
HGEGTFTSDVSSYLEGQ[A^u][A^u][A^u]FIAWLVKGRG-NH2 [GG2[A^UA^UA^U]^18-21] | 4.1 | 6
HGEGTFTS[D^uα][A^u][A^u]YLEGQAAKEFIAWLVKGRG-NH2 [GG2[D^UαA^UA^U]^9-12] | 13 | 2
H-HGEGTFTSDVS[Au][Au][Au]GQAAKEFIAWLVKGRG-NH2 (also: oligourea (urea) backbone at A^u units) [GG2[A^UA^UA^U]^12-15] | > 10000 | < 0.01
B4 | > 10000 | < 0.01
HGEGTFTSDVSSY[Y^u][E^u][A^u][A^u][A^u][A^u]FIAWLVKGRG-NH2 [GG2[Y^uE^uA^uA^uA^uA^u]^14-21] | 3.4 | 7
B5 | 1600 | 0.01
H-HGEGTFTSDVSSY[Au][Au][Au]AAKEFIAWLVKGRG-NH2 (also: oligourea (urea) backbone at A^u units) [GG2[A^UA^UA^U]^14-17] | 353 | 0.07
HGEGTFTSDV[Au][Au][Au]EGQAAKEFIAWLVKGRG-NH2 (also: oligourea (urea) backbone at A^u units) [GG2[A^UA^UA^U]^11-14] | 97 | 0.2
